The supplement of paper PMC10724198
± gives the standard deviation of the averaged measurements.

How the values were obtained:
[1] = system: Saccharomyces cerevisiae; test: protein stability index of tFT-peptide fusion (C-terminal peptide) (PSI (0-1 scale)); higher = more stable (slower turnover)
Protocol: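 MPS profiling in S. cerevisiae of the tFT-X12 degron library: putative degron peptides plus stable controls, 12 aa, fused to the C-terminus of a sfGFP-mCherry timer. Cells are FACS-sorted into 8 mCherry/sfGFP bins and deep-sequenced. PSI runs from 0 (unstable) to 1 (stable). Backgrounds are wild type, das1Δ and doa10Δ at 30 °C, and wild type, das1Δ, cdc34-1 and cdc53-1 at 37 °C; 2-3 technical replicates each.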

[2] = system: Saccharomyces cerevisiae; test: as above; details: genetic background: wild type; temperature: 30 C
[3] = genetic background: cdc34-1, temperature: 37 C
[4] = genetic background: cdc53-1, temperature: 37 C
[5] = genetic background: das1 deletion, temperature: 30 C
[6] = genetic background: das1 deletion, temperature: 37 C
[7] = genetic background: doa10 deletion, temperature: 30 C
[8] = genetic background: wild type, temperature: 30 C
[9] = genetic background: wild type, temperature: 37 C
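Further: PSI is a weighted mean of sequencing reads over stability bins, variants kept only with over 10 reads, mCherry proximal and sfGFP distal, peptide attached via GGGS linker.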

Sequence	protein stability index [1, 3]	protein stability index [1, 4]	protein stability index [1, 5]	protein stability index [1, 6]	protein stability index [1, 7]	protein stability index [1, 8]	protein stability index [1, 9]	protein stability index [2]
CGWFVSVGWRLG	0.5443 ± 0.0014	0.67 ± 0.037	0.514 ± 0.016	0.66 ± 0.0096	0.228 ± 0.014	0.305 ± 0.035	0.5062 ± 0.0022	0.25 ± 0.013
CHFLLHYVFLLS	0.3792 ± 0.0019	0.456 ± 0.0076	0.306 ± 0.037	0.523 ± 0.0055	0.241 ± 0.0065	0.267 ± 0.024	0.462 ± 0.015	0.417 ± 0.017
CHPIPLARLAPT	0.671 ± 0.032	0.745 ± 0.032	0.67 ± 0.046	0.7433 ± 0.0058	0.652 ± 0.026	0.666 ± 0.014	0.697 ± 0.011	0.72 ± 0.013
CKKATILRIKSM	0.589 ± 0.049	0.715 ± 0.051	0.643 ± 0.014	0.691 ± 0.0021	0.17 ± 0.023	0.19 ± 0.031	0.298 ± 0.059	0.304 ± 0.013
CLCYFLFYFLFV	0.49 ± 0.0055	0.513 ± 0.026	0.436 ± 0.033	0.572 ± 0.0063	0.465 ± 0.023	0.442 ± 0.029	0.543 ± 0.028	0.501 ± 0.043
CLEHLVYCRLAS	0.435 ± 0.046	0.624 ± 0.06	0.555 ± 0.015	0.6774 ± 0.0062	0.0612 ± 0.0023	0.0694 ± 0.025	0.0634 ± 0.0027	0.131 ± 0.022
CLHFLTWVRICS	0.2 ± 0.041	0.4701 ± 0.0029	0.409 ± 0.019	0.526 ± 0.011	0.0895 ± 0.0063	0.0814 ± 0.025	0.0804 ± 0.03	0.285 ± 0.041
CLNPCVRWDGHV	0.739 ± 0.065	0.7589 ± 0.0016	0.651 ± 0.039	0.77 ± 0.0062	0.661 ± 0.05	0.687 ± 0.028	0.732 ± 0.011	0.708 ± 0.0077
